Target: recombinant protein TCRVB 6-5 (human)
Experiment: SPR, compared with BJM0277

Chain of recombinant protein TCRVB 6-5 (human) (TCR beta, as listed by the source): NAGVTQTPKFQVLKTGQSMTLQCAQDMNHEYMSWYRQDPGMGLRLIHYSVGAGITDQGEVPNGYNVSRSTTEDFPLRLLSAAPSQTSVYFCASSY

fold greater affinity than BJM0277: 35 fold
B1: A-H.45 (bispecific antibody, part only; not given: anti-CD19 arm, constant regions, linkers, not shown: another chain or arm of the molecule; a dimerising Fc or GST; small tags and cut ends)
scFv: QVQLVQSGAEVKKPGSSVKVSCKASGYSFTTYYIHWVRQAPGQGLEWMGWFSAGSGNTKYNEKFKGRVTITADTSTSTAYMELSSLRSEDTAVYYCAVSYYSYDVLDYWGQGTTVTVSSGGGGSGGGGSGGGGSGGGGSDIQMTQSPSFLSASVGDRVTITCKASQNVGINVVWHQQKPGKAPKALIYSSSHRYSGVPSRFSGSGSGTEFTLTISSLQPEDFATYFCQQFKSYPLTFGQGTKLEIK

Reference: US20250340640A1
